Reference: PMC12102760

Target: IgG 1C1
Test: BLI; IgG captured on anti-human biosensors, quenched with Fc; receptor ECD-Fc in solution, three-fold dilutions from 300 nM; PBS, 1% BSA, 0.05% Tween 20; 25°C; 1:1 binding model

Chain of IgG 1C1 (heavy, as listed by the source, chain 1 of 2): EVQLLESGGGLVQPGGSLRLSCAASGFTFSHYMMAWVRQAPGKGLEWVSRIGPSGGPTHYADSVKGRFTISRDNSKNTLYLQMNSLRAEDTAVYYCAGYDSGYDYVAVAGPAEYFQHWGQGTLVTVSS
Chain of IgG 1C1 (light, as listed by the source, chain 2 of 2): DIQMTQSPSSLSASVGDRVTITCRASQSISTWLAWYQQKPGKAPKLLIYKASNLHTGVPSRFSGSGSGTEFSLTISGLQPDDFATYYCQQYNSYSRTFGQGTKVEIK

B1: EphA8-Fc (Fc fusion)
chain: ARGEVNLLDTSTIHGDWGWLTYPAHGWDSINEVDESFQPIHTYQVCNVMSPNQNNWLRTSWVPRDGARRVYAEIKFTLRDCNSMPGVLGTCKETFNLYYLESDRDLGASTQESQFLKIDTIAADESFTGADLGVRRLKLNTEVRSVGPLSKRGFYLAFQDIGACLAILSLRIYYKKCPAMVRNLAAFSEAVTGADSSSLVEVRGQCVRHSEERDTPKMYCSAEGEWLVPIGKCVCSAGYEERRDACVACELGFYKSAPGDQLCARCPPHSHSAAPAAQACHCDLSYYRAALDPPSSACTRPPSAPVNLISSVNGTSVTLEWAPPLDPGGRSDITYNAVCRRCPWALSRCEACGSGTRFVPQQTSLVQASLLVANLLAHMNYSFWIEAVNGVSDLSPEPRRAAVVNITTNQAAPSQVVVIRQERAGQTSVSLLWQEPEQPNGIILEYEIKYYEKDKEMQSYSTLKAVTTRATVSGLKPGTRYVFQVRARTSAGCGRFSQAMEVETGKPRPRYDTRT
  Kd: 0.97 µM
